From article PMC5783997 come the findings set out here.

For assay [1], the target named is PucD LH2 α-apoprotein (α-polypeptide encoded by the pucBAd gene pair) (Rhodopseudomonas palustris (endogenous in the ΔpucBAabce mutant; genome sequence of strain CGA009)). As to the kind of experiment: crystal structure; PucD LH2 in 20 mM Tris-Cl pH 8.0, 0.15% DM, 3.0% HPT, PEG 600, 50 mM CaCl2, 16 °C; data to 4.71 Å; molecular replacement with the nonameric Rps. acidophila 10050 LH2, jelly-body refinement.

Assay [2] concerns the target PucD LH2 β-apoprotein (β-polypeptide encoded by the pucBAd gene pair) (Rhodopseudomonas palustris (endogenous in the ΔpucBAabce mutant; genome sequence of strain CGA009)). The assay is described as above.

“PucD LH2 α-apoprotein (α-polypeptide encoded by the pucBAd gene pair) (natural protein)” displayed a stoichiometry N in assay [1] of 9.

“PucD LH2 β-apoprotein (β-polypeptide encoded by the pucBAd gene pair) (natural protein)” came in with a stoichiometry N in assay [2] of 9.
